Where a chain is given by its changes, count along the chain named.
T1: Smc5 hinge Y612A;Smc6 hinge (extended-hinge) (Schizosaccharomyces …, UniProt O13710;P53692 364-692;462-773, Y612A|)
T1 sequence 1: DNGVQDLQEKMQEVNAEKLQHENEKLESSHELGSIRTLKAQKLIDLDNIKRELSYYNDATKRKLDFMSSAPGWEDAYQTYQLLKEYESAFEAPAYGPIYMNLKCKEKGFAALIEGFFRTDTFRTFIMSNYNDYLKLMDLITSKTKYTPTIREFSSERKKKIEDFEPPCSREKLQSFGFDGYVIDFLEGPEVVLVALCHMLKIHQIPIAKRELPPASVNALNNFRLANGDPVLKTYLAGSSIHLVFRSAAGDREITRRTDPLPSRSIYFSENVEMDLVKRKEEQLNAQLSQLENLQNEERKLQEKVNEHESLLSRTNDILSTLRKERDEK
T1 sequence 2: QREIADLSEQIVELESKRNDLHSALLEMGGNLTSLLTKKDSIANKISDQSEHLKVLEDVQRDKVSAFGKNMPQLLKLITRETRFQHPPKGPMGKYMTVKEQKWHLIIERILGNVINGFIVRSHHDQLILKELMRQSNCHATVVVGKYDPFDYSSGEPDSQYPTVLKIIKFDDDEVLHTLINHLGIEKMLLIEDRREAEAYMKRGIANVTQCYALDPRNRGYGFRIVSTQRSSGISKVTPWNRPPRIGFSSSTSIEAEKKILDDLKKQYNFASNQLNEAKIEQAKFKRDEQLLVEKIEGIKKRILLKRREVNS

T2: Smc5 hinge (extended-hinge);Smc6 hinge R706C (Schizosaccharomyces …, UniProt O13710;P53692 364-692;462-773, |R706C)
T2 sequence 1: T1 sequence 1 with A249Y
T2 sequence 2: T1 sequence 2 with R245C

T3: Smc5 hinge (extended-hinge);Smc6 hinge F528A (Schizosaccharomyces …, UniProt O13710;P53692 364-692;462-773, |F528A)
T3 sequence 1: T1 sequence 1 with A249Y
T3 sequence 2: T1 sequence 2 with F67A

T4: Smc5 hinge (extended-hinge);Smc6 hinge (extended-hinge) (Schizosaccharomyces …, UniProt O13710;P53692 364-692;462-773, |)
T4 sequence 1: T1 sequence 1 with A249Y
T4 sequence 2: T1 sequence 2


Experiments:
[1] = biological target: T1, Smc5 hinge Y612A;Smc6 hinge …; assay: fluorescence polarization; 20 mM HEPES.NaOH pH 7.5, 100 mM NaCl, 1 mM EDTA, 0.5 mM TCEP, room temperature 10 min, 100 nM DNA (FP, EMSA); pull-down same buffer, protein incubation 4 C 30 min; switchSENSE buffer not given; conditions: protein: recombinant;recombinant, tags: N-terminal His6, HRV-3C cleaved;N-terminal StrepII, copies: 1;1, label: 5' fluorescein, single strand
[2] = biological target: T2, Smc5 hinge (extended-hinge);Smc6 hinge …; assay: as above; conditions: protein: recombinant;recombinant, tags: N-terminal His6, HRV-3C cleaved;N-terminal StrepII, copies: 1;1, label: 5' fluorescein, single strand
[3] = biological target: T3, Smc5 hinge (extended-hinge);Smc6 hinge …; assay: as above; conditions: protein: recombinant;recombinant, tags: N-terminal His6, HRV-3C cleaved;N-terminal StrepII, copies: 1;1, label: 5' fluorescein, single strand
[4] = biological target: T4, Smc5 hinge (extended-hinge);Smc6 hinge …; assay: as above; conditions: protein: recombinant;recombinant, tags: N-terminal His6, HRV-3C cleaved;N-terminal StrepII, copies: 1;1, label: 5' fluorescein, single strand
[5] = biological target: T4, Smc5 hinge (extended-hinge);Smc6 hinge …; assay: switchSENSE; biphasic association and dissociation; 20 mM HEPES.NaOH pH 7.5, 100 mM NaCl, 1 mM EDTA, 0.5 mM TCEP, room temperature 10 min, 100 nM DNA (FP, EMSA); pull-down same buffer, protein incubation 4 C 30 min; switchSENSE buffer not given; conditions: protein: recombinant;recombinant, tags: N-terminal His6, HRV-3C cleaved;N-terminal StrepII, copies: 1;1, label: 3' Cy3, single strand, immobilized on gold

Binder	Kd [1]	Kd [2]	Kd [3]	Kd [4]	binding result [5]
GCTCGTCTGGCTCTG (ssDNA) [15mer]	~1300 nM	~1600 nM	~1700 nM	~1200 nM	
GTGTGAACCCTCCAACAAAGGTAGCATTTGCCAGCTCTCGTGATGCAG (ssDNA, 5' HS-(CH2)6 thiol linker) [switchSENSE 48mer]					binds

— paper PMC5290277, “Specialized interfaces of Smc5/6 control hinge stability and DNA association”
